Experimental data published in patent US10428149 (dated 2019).
Changes are numbered by the printed parent chain.

B1: EHD2-scTRAIL3-FLVGGGPQRVA (designed binder)
chain 1: DFTPPTVKILQSSCDGGGHFPPTIQLLCLVSGYTPGTINITWLEDGQVMDVDLSTASTTQEGELASTQSELTLSQKHWLSDRTYTCQVTYQGHTFEDSTKKCADSN
chain 2: MDWTWRVFCLLAVAPGAHSLDDYKDDDDKEFGGGPQRVAAHITGTRGRSNTLSSPNSKNEKALGRKINSWESSRSGHSFLSNLHLRNGELVIHEKGFYYIYSQTYFRFQEEIKENTKNDKQMVQYIYKYTSYPDPILLMKSARNSCWSKDAEYGLYSIYQGGIFELKENDRIFVSVTNEHLIDMDHEASFFGAFLVGGGPQRVAAHITGTRGRSNTLSSPNSKNEKALGRKINSWESSRSGHSFLSNLHLRNGELVIHEKGFYYIYSQTYFRFQEEIKENTKNDKQMVQYIYKYTSYPDPILLMKSARNSCWSKDAEYGLYSIYQGGIFELKENDRIFVSVTNEHLIDMDHEASFFGAFLVGGGPQRVAAHITGTRGRSNTLSSPNSKNEKALGRKINSWESSRSGHSFLSNLHLRNGELVIHEKGFYYIYSQTYFRFQEEIKENTKNDKQMVQYIYKYTSYPDPILLMKSARNSCWSKDAEYGLYSIYQGGIFELKENDRIFVSVTNEHLIDMDHEASFFGAFLV
B2: scTRAIL3-FLVGGGPQRVA (designed binder)
chain: B1 chain 2
B3: Db anti-FAP-Glyco-scTRAIL3-FAVSGAA (antibody)
chain: MDWTWRVFCLLAVAPGAHSLEASDYKDDDDKGTGQVQLVQSGAEVKKPGASVKVSCKASGYTFTENIIHWVRQAPGQGLEWMGWFHPGSGSIKYNEKFKDRVTMTADTSTSTVYMELSSLRSEDTAVYYCARHGGTGRGAMDYWGQGTLVTVSSGGGGSDIQMTQSPSSLSASVGDRVTITCRASKSVSTSAYSYMHWYQQKPGKAPKLLIYLASNLESGVPSRFSGSGSGTDFTLTISSLQPEDFATYYCQHSRELPYTFGQGTKLEIKRAAAGNGTSNGTSEFGGAAAHITGTRGRSNTLSSPNSKNEKALGRKINSWESSRSGHSFLSNLHLRNGELVIHEKGFYYIYSQTYFRFQEEIKENTKNDKQMVQYIYKYTSYPDPILLMKSARNSCWSKDAEYGLYSIYQGGIFELKENDRIFVSVTNEHLIDMDHEASFFGAFAVSGAAAHITGTRGRSNTLSSPNSKNEKALGRKINSWESSRSGHSFLSNLHLRNGELVIHEKGFYYIYSQTYFRFQEEIKENTKNDKQMVQYIYKYTSYPDPILLMKSARNSCWSKDAEYGLYSIYQGGIFELKENDRIFVSVTNEHLIDMDHEASFFGAFAVSGAAAHITGTRGRSNTLSSPNSKNEKALGRKINSWESSRSGHSFLSNLHLRNGELVIHEKGFYYIYSQTYFRFQEEIKENTKNDKQMVQYIYKYTSYPDPILLMKSARNSCWSKDAEYGLYSIYQGGIFELKENDRIFVSVTNEHLIDMDHEASFFGAFAVS
B4: Dbhu225-scTRAIL3-FLVGGGPQRVA (antibody)
chain: DYKDDDDKGGGGSGTEVQLVESGGGLVQPGGSLRLSCAASGFSLTNYGVHWVRQAPGKGLEWLGVIWSGGNTDYNTPFTSRFTISRDNSKNTLYLQMNSLRAEDTAVYYCARALTYYDYEFAYWGQGTTVTVSSGGGGSDIQLTQSPSFLSASVGDRVTITCRASQSIGTNIHWYQQKPGKAPKLLIKYASESISGVPSRFSGSGSGTEFTLTISSLQPEDFATYYCQQNNNWPTTFGAGTKLEIKRAAAGGSGGGPQRVAAHITGTRGRSNTLSSPNSKNEKALGRKINSWESSRSGHSFLSNLHLRNGELVIHEKGFYYIYSQTYFRFQEEIKENTKNDKQMVQYIYKYTSYPDPILLMKSARNSCWSKDAEYGLYSIYQGGIFELKENDRIFVSVTNEHLIDMDHEASFFGAFLVGGGPQRVAAHITGTRGRSNTLSSPNSKNEKALGRKINSWESSRSGHSFLSNLHLRNGELVIHEKGFYYIYSQTYFRFQEEIKENTKNDKQMVQYIYKYTSYPDPILLMKSARNSCWSKDAEYGLYSIYQGGIFELKENDRIFVSVTNEHLIDMDHEASFFGAFLVGGGPQRVAAHITGTRGRSNTLSSPNSKNEKALGRKINSWESSRSGHSFLSNLHLRNGELVIHEKGFYYIYSQTYFRFQEEIKENTKNDKQMVQYIYKYTSYPDPILLMKSARNSCWSKDAEYGLYSIYQGGIFELKENDRIFVSVTNEHLIDMDHEASFFGAFLVG
B5: dsDbhu225-scTRAIL3-FLVGGGPQRVA (antibody)
chain: B4 chain with G59C, A239C
B6: scFvhu225-EHD2-scTRAIL3-FLVGGGPQRVA (antibody)
chain: DYKDDDDKGGGGSGTEVQLVESGGGLVQPGGSLRLSCAASGFSLTNYGVHWVRQAPGKGLEWLGVIWSGGNTDYNTPFTSRFTISRDNSKNTLYLQMNSLRAEDTAVYYCARALTYYDYEFAYWGQGTTVTVSSGGGGSGGGGSGGGGSDIQLTQSPSFLSASVGDRVTITCRASQSIGTNIHWYQQKPGKAPKLLIKYASESISGVPSRFSGSGSGTEFTLTISSLQPEDFATYYCQQNNNWPTTFGAGTKLEIKRAAAGGSGGDFTPPTVKILQSSCDGGGHFPPTIQLLCLVSGYTPGTINITWLEDGQVMDVDLSTASTTQEGELASTQSELTLSQKHWLSDRTYTCQVTYQGHTFEDSTKKCADSNGGSGGASSGGGPQRVAAHITGTRGRSNTLSSPNSKNEKALGRKINSWESSRSGHSFLSNLHLRNGELVIHEKGFYYIYSQTYFRFQEEIKENTKNDKQMVQYIYKYTSYPDPILLMKSARNSCWSKDAEYGLYSIYQGGIFELKENDRIFVSVTNEHLIDMDHEASFFGAFLVGGGPQRVAAHITGTRGRSNTLSSPNSKNEKALGRKINSWESSRSGHSFLSNLHLRNGELVIHEKGFYYIYSQTYFRFQEEIKENTKNDKQMVQYIYKYTSYPDPILLMKSARNSCWSKDAEYGLYSIYQGGIFELKENDRIFVSVTNEHLIDMDHEASFFGAFLVGGGPQRVAAHITGTRGRSNTLSSPNSKNEKALGRKINSWESSRSGHSFLSNLHLRNGELVIHEKGFYYIYSQTYFRFQEEIKENTKNDKQMVQYIYKYTSYPDPILLMKSARNSCWSKDAEYGLYSIYQGGIFELKENDRIFVSVTNEHLIDMDHEASFFGAFLVG
B7: dsDb3M6-scTRAIL3-FLVGGGPQRVA (antibody)
chain: DYKDDDDKGGGGSGTEVQLLESGGGLVQPGGSLRLSCAASGFTFSHYVMAWVRQAPGKCLEWVSSISSSGGWTLYADSVKGRFTISRDNSKNTLYLQMNSLRAEDTAVYYCTRGLKMATIFDYWGQGTLVTVSSGGGGSQSALTQPASVSGSPGQSITISCTGTSSDVGSYNVVSWYQQHPGKAPKLIIYEVSQRPSGVSNRFSGSKSGNTASLTISGLQTEDEADYYCSSYAGSSIFVIFGCGTKVTVLAAAGGSGGGPQRVAAHITGTRGRSNTLSSPNSKNEKALGRKINSWESSRSGHSFLSNLHLRNGELVIHEKGFYYIYSQTYFRFQEEIKENTKNDKQMVQYIYKYTSYPDPILLMKSARNSCWSKDAEYGLYSIYQGGIFELKENDRIFVSVTNEHLIDMDHEASFFGAFLVGGGPQRVAAHITGTRGRSNTLSSPNSKNEKALGRKINSWESSRSGHSFLSNLHLRNGELVIHEKGFYYIYSQTYFRFQEEIKENTKNDKQMVQYIYKYTSYPDPILLMKSARNSCWSKDAEYGLYSIYQGGIFELKENDRIFVSVTNEHLIDMDHEASFFGAFLVGGGPQRVAAHITGTRGRSNTLSSPNSKNEKALGRKINSWESSRSGHSFLSNLHLRNGELVIHEKGFYYIYSQTYFRFQEEIKENTKNDKQMVQYIYKYTSYPDPILLMKSARNSCWSKDAEYGLYSIYQGGIFELKENDRIFVSVTNEHLIDMDHEASFFGAFLVG
B8: Db3M6-scTRAIL3-… (HER3 arm) (antibody, V domains shown)
VH: EVQLLESGGGLVQPGGSLRLSCAASGFTFSHYVMAWVRQAPGKGLEWVSSISSSGGWTLYADSVKGRFTISRDNSKNTLYLQMNSLRAEDTAVYYCTRGLKMATIFDYWGQGTLVTVSS
VL: QSALTQPASVSGSPGQSITISCTGTSSDVGSYNVVSWYQQHPGKAPKLIIYEVSQRPSGVSNRFSGSKSGNTASLTISGLQTEDEADYYCSSYAGSSIFVIFGGGTKVTVL
B9: scFv3M6-EHD2-scTRAIL3-… (HER3 arm) (antibody)
chain: EVQLLESGGGLVQPGGSLRLSCAASGFTFSHYVMAWVRQAPGKGLEWVSSISSSGGWTLYADSVKGRFTISRDNSKNTLYLQMNSLRAEDTAVYYCTRGLKMATIFDYWGQGTLVTVSSGGGGSGGGGSGGGGSQSALTQPASVSGSPGQSITISCTGTSSDVGSYNVVSWYQQHPGKAPKLIIYEVSQRPSGVSNRFSGSKSGNTASLTISGLQTEDEADYYCSSYAGSSIFVIFGGGTKVTVLAAAGGSGGDFTPPTVKILQSSCDGGGHFPPTIQLLCLVSGYTPGTINITWLEDGQVMDVDLSTASTTQEGELASTQSELTLSQKHWLSDRTYTCQVTYQGHTFEDSTKKCADSN
B10: scFv3M6-Fc-scTRAIL3-… (HER3 arm) (antibody, V domains shown)
VH: B8 VH
VL: B8 VL

biological target: T1, TRAIL-R2 (DR5) (human, UniProt O14763); experiment: FACS, Colo205 cells

Point of comparison: B2, EC50 5.67 nM. Against it:
- B1 — higher, > 100 nM

biological target: FAP (human, UniProt Q12884); experiment: FACS, HT1080 FAP+ cells
Sequence (Q12884 26-760): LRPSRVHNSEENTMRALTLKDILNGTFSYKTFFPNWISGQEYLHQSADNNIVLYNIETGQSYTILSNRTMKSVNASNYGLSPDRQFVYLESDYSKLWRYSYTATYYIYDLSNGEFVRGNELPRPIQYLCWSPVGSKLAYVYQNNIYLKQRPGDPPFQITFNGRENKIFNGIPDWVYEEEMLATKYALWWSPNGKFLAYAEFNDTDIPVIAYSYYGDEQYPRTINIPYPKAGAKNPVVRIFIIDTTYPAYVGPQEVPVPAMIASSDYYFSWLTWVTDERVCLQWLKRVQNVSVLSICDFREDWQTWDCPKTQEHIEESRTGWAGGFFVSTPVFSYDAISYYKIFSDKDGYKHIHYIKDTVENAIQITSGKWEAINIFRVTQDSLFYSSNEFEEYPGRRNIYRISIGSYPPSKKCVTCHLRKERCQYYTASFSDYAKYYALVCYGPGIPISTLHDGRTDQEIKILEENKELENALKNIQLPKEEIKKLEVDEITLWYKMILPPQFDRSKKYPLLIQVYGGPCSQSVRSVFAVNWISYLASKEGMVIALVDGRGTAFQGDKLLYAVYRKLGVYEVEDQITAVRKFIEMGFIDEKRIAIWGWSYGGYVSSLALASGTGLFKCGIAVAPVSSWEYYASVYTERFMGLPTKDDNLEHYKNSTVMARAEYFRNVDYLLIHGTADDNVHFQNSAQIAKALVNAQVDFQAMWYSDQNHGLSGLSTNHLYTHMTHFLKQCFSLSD

Work on B3 yielded an EC50 of 14 nM.

biological target: T1, TRAIL-R2 (DR5); experiment: ELISA

Point of comparison: B1, EC50 1.94 nM. Against it:
- B4 — 2.5-fold lower, 0.79 nM
- B5 — 1.5-fold lower, 1.29 nM
- B2 — within 1.5-fold, 1.74 nM
- B6 — within 1.5-fold, 1.82 nM
- B7 — within 1.5-fold, 2.83 nM

biological target: T2, EGFR (human, UniProt P00533); experiment: FACS, Colo205 cells

Point of comparison: B6, EC50 0.58 nM. Against it:
- B4 — 1.5-fold higher, 0.87 nM
- B5 — within 1.5-fold, 0.86 nM

biological target: T3, HER3 (human, UniProt P21860); experiment: ELISA

Point of comparison: B9, EC50 11.6 nM. Against it:
- B8 — 2-fold lower, 5.88 nM
- B7 — within 1.5-fold, 8.54 nM

biological target: T2, EGFR; experiment: ELISA

Point of comparison: B5, EC50 0.98 nM. Against it:
- B4 — within 1.5-fold, 0.77 nM
- B6 — within 1.5-fold, 1.25 nM

biological target: T3, HER3; experiment: FACS, Colo205 cells

Point of comparison: B10, EC50 13.1 nM. Against it:
- B8 — within 1.5-fold, 10.4 nM
- B9 — 1.5-fold higher, 19.9 nM
- B7 — 2.5-fold higher, 32.5 nM
